In patent US9994845:

Target: fluorescently-labeled taxol-stabilized microtubules

B1: purified recombinant full-length Kif19 (protein)
chain: MKDSGDSKDQQLMVALRVRPISVAELEEGATLIAHKVDEQMVVLMDPMEDPDDILRAHRSREKSYLFDVAFDFTATQEMVYQATTKSLIEGVISGYNATVFAYGPTGCGKTYTMLGTDQEPGIYVQTLNDLFRAIEETSNDMEYEVSMSYLEIYNEMIRDLLNPSLGYLELREDSKGVIQVAGITEVSTINAKEIMQLLMKGNRQRTQEPTAANQTSSRSHAVLQVTVRQRSRVKNILQEVRQGRLFMIDLAGSERASQTQNRGQRMKEGAHINRSLLALGNCINALSDKGSNKYINYRDSKLTRLLKDSLGGNSRTVMIAHISPASSAFEESRNTLTYAGRAKNIKTRVKQNLLNVSYHIAQYTSIIADLRGEIQRLKRKIDEQTGRGQARGRQDRGDIRHIQAEVQLHSGQGEKAGMGQLREQLASAFQEQMDVRRRLLELENRAMEVQIDTSRHLLTIAGWKHEKSRRALKWREEQRKECYAKDDSEKDSDTGDDQPDILEPPEVAAARESIAALVDEQKQLRKQKLALEQRCRELRARGRRLEETLPRRIGSEEQREVLSLLCRVHELEVENTEMQSHALLRDGALRHRHEAVRRLEQHRSLCDEIIQGQRQIIDDYNLAVPQRLEELYEVYLRELEEGSLEQATIMDQVASRALQDSSLPKITPAGTSLTPDSDLESVKTLSSDAQHLQNSALPPLSTESEGHHVFKAGTGAWQAKSSSVPTPPPIQLGSLVTQEAPAQDSLGSWINSSPDSSENLSEIPLSHKERKEILTGTKCIWVKAARRRSRALGTEGRHLLAPATERSSLSLHSLSEGDDARPPGPLACKRPPSPTLQHAASEDNLSSSTGEAPSRAVGHHGDGPRPWLRGQKKSLGKKREESLEAKRRKRRSRSFEVTGQGLSHPKTHLLGPHQAERISDHRMPVCRHPAPGIRHLGKVTLPLAKVKLPPSQNTGPGDSSPLAVPPNPGGGSRRATRGPRLPHGTSTHGKDGCSRHN
- microtubule depolymerization in vitro (TIRF time series, 5 minutes): Kif-19 depolymerizes microtubules in vitro
